Reference: publication PMC4070737

Biological target: T1, full-length human EB1 (human), Q15691
T1 chain: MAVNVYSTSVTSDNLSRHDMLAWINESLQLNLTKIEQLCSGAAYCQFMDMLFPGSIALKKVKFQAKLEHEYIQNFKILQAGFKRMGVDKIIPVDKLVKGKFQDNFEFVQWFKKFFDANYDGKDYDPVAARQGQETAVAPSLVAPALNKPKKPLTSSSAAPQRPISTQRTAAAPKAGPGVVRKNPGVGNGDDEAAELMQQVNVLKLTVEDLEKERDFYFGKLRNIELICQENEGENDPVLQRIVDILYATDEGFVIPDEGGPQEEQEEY
Assay: AUC
Settings: remark: other sources report otherwise

B1: full-length human EB1, Q15691 1-268 (natural protein)
chain: MAVNVYSTSVTSDNLSRHDMLAWINESLQLNLTKIEQLCSGAAYCQFMDMLFPGSIALKKVKFQAKLEHEYIQNFKILQAGFKRMGVDKIIPVDKLVKGKFQDNFEFVQWFKKFFDANYDGKDYDPVAARQGQETAVAPSLVAPALNKPKKPLTSSSAAPQRPISTQRTAAAPKAGPGVVRKNPGVGNGDDEAAELMQQVNVLKLTVEDLEKERDFYFGKLRNIELICQENEGENDPVLQRIVDILYATDEGFVIPDEGGPQEEQEEY
For B1, the Kd was 88.5 nM and the stoichiometry N was 2.
